This is an account of results in patent US20090311243A1.

Test [1] concerns the target human Fzd8 (human) (UniProt Q9H461). As to the kind of experiment: cell-based or functional assay.
The target of test [2] is recombinant Wnt3a protein (R&D systems). As to the kind of experiment: cell-based or functional assay.

Sequence of UniProt Q9H461 (Q9H461 28-694): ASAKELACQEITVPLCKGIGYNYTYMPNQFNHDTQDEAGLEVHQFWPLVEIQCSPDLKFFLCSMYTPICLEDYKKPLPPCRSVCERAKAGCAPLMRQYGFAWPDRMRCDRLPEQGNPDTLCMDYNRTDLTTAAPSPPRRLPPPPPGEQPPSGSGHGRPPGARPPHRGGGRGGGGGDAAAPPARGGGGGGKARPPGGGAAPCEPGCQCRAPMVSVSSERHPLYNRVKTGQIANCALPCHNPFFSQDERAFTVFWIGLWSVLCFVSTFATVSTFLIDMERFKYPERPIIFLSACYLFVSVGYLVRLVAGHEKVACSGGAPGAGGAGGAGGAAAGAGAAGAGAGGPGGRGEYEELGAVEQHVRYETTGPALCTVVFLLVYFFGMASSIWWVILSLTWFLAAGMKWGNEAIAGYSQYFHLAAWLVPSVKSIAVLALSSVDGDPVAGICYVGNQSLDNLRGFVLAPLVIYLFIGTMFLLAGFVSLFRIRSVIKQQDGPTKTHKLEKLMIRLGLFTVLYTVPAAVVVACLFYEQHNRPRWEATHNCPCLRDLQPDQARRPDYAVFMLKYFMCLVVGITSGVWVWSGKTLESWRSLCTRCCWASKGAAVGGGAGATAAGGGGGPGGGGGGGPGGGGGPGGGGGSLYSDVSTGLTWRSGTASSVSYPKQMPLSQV
Sequence of recombinant Wnt3a protein (R&D systems) (P27467 19-352): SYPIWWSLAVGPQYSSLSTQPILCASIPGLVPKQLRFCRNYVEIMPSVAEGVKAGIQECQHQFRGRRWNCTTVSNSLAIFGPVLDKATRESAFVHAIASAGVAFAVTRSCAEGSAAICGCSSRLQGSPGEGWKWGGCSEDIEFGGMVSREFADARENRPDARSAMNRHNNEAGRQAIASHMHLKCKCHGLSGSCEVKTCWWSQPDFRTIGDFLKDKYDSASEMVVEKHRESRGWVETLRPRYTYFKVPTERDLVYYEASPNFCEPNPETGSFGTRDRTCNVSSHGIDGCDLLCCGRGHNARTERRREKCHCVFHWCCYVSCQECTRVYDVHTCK

“human Wnt8a (from UniProt Q9H1J5 25-351) (ligand)” yielded a Wnt8a mediated SOX9 mRNA reduction in primary chondrocytes, rescue by Fzd8 siRNA (quantitative PCR) in test [1] of 52%.

On to “recombinant Wnt3a protein (R&D systems) (ligand)”, for which the TCF/LEF reporter (TOPFlash) luciferase activity, normalized to Renilla luciferase in test [1] turned out to be 10.4 fold.

Take “murine Fzd8 CRD Fc fusion (R&D systems) (from UniProt Q61091 28-173)”: the ND50, inhibition of Wnt3a-induced TCF reporter luciferase activity in Fzd8:CHOK1 cells in test [2] was found to be 0.027 µg/mL.
